Measurements taken from US10077319B2, “Anti-PCSK9-GLP-1 fusions and methods for use” (MedImmune, LLC, priority 2014, dated 2018).
Numbering of substitutions follows the chain as printed. Numbers in names are those of the source. Unless stated, no cut-off for active and inactive is given here.

B1: PC9#2_GLP-1_VL: GLP-1 analogue SEQ ID NO:28 fused via linker SEQ ID NO:4 to light chain of PC9#2 (SEQ ID NO: 43) (protein)
chain: HGEGTFTSDVSSYLEEQAAKEFIAWLVKGGGGGGGSGGGGSGGGGSADIQMTQSPSSLSASVGDRVTITCKASQDVHTAVAWYQQKPGKAPKLLIYHASYRYTGVPSRFSGSGSGTDFTFTISSLQPEDIATYYCQQRYSLWRTFGQGTKLEIKR
modifications: heavy chain not cited
B2: HS9_DSB7_I23S: HS9_DSB7 with peptide point mutation I23S; SEQ ID NO: 458 (protein)
chain: HGEGTFTSDLSKQMEEECVRLFSEWLKNGGPSSGAPPPGCGGGGGSGGGGSGGGGSADIQMTQSPSSLSASVGDRVTITCQASQDVKTAVAWYQQKPGKAPKLLIYSASYRYTGVPSRFSGSGSGTDFTFTISSLQPEDIATYYCQQRYSLWRTFGQGTKLEIK
B3: HS9_DSB7_L26E: HS9_DSB7 with peptide point mutation L26E; SEQ ID NO: 470 (protein)
chain: B2 chain with S23I, L26E
B4: HS9_DSB7_L26S: HS9_DSB7 with peptide point mutation L26S; SEQ ID NO: 462 (protein)
chain: B2 chain with S23I, L26S
B5: HS9_DSB7_I23T: HS9_DSB7 with peptide point mutation I23T; SEQ ID NO: 457 (protein)
chain: B2 chain with S23T
B6: HS9_DSB7_L26D: HS9_DSB7 with peptide point mutation L26D; SEQ ID NO: 471 (protein)
chain: B2 chain with S23I, L26D
B7: HS9_DSB7_G2Y: HS9_DSB7 with peptide point mutation G2Y; SEQ ID NO: 444 (protein)
chain: B2 chain with G2Y, S23I
B8: HS9_DSB7_L26G: HS9_DSB7 with peptide point mutation L26G; SEQ ID NO: 469 (protein)
chain: B2 chain with S23I, L26G
B9: HS9_DSB7_G2I: HS9_DSB7 with peptide point mutation G2I; SEQ ID NO: 449 (protein)
chain: B2 chain with G2I, S23I
B10: HS9_DSB7_L26N: HS9_DSB7 with peptide point mutation L26N; SEQ ID NO: 464 (protein)
chain: B2 chain with S23I, L26N
B11: HS9_DSB7_I23G: HS9_DSB7 with peptide point mutation I23G; SEQ ID NO: 459 (protein)
chain: B2 chain with S23G
B12: HS9_DSB7_V19G: HS9_DSB7 with peptide point mutation V19G; SEQ ID NO: 455 (protein)
chain: B2 chain with V19G, S23I
B13: HS9_DSB7_L26T: HS9_DSB7 with peptide point mutation L26T; SEQ ID NO: 461 (protein)
chain: B2 chain with S23I, L26T
B14: HS9_DSB7_G2Q: HS9_DSB7 with peptide point mutation G2Q; SEQ ID NO: 447 (protein)
chain: B2 chain with G2Q, S23I
B15: HS9_DSB7_V19T: HS9_DSB7 with peptide point mutation V19T; SEQ ID NO: 453 (protein)
chain: B2 chain with V19T, S23I
B16: HS9_DSB7_G2T: HS9_DSB7 with peptide point mutation G2T; SEQ ID NO: 446 (protein)
chain: B2 chain with G2T, S23I
B17: HS9_DSB7_V19S: HS9_DSB7 with peptide point mutation V19S; SEQ ID NO: 454 (protein)
chain: B2 chain with V19S, S23I
B18: HS9_DSB7_G2N: HS9_DSB7 with peptide point mutation G2N; SEQ ID NO: 448 (protein)
chain: B2 chain with G2N, S23I
B19: HS9_DSB7_L26H: HS9_DSB7 with peptide point mutation L26H; SEQ ID NO: 468 (protein)
chain: B2 chain with S23I, L26H
B20: HS9_DSB7_I23A: HS9_DSB7 with peptide point mutation I23A; SEQ ID NO: 460 (protein)
chain: B2 chain with S23A
B21: HS9_DSB7_L26Q: HS9_DSB7 with peptide point mutation L26Q; SEQ ID NO: 465 (protein)
chain: B2 chain with S23I, L26Q
B22: HS9_DSB7_G2F: HS9_DSB7 with peptide point mutation G2F; SEQ ID NO: 450 (protein)
chain: B2 chain with G2F, S23I
B23: HS9_DSB7_L26M: HS9_DSB7 with peptide point mutation L26M; SEQ ID NO: 466 (protein)
chain: B2 chain with S23I, L26M
B24: HS9_DSB7_L26P: HS9_DSB7 with peptide point mutation L26P; SEQ ID NO: 463 (protein)
chain: B2 chain with S23I, L26P

These molecules were tested against human GLP-1 receptor (Homo sapiens, UniProt P43220) (assay: cAMP production assay in CHO cells expressing human GLP-1 receptor). Conditions: Table 13; EC50 relative to GLP1-Fc.
Assay type: cell-based
Procedure: Low protein binding 384-well plates (Greiner) were used to perform eleven 1 in 4 serial dilutions of test compound that were made in assay medium (0.1% bovine serum albumin in Hanks Balanced Salt Solution (GIBCO or Sigma), containing 0.5 mM IBMX (Sigma)). All sample dilutions were made in duplicate. […] Cells were then re-suspended in assay buffer at the optimized concentration of 1×10^5 cells/mL and dispensed at 5 uL per well to black shallow-well u-bottom 384-well plates (Corning). 5 μL of test compound was transferred from the dilution plate to the cell plate and incubated at room temperature for 30 minutes. cAMP levels were measured the cAMP dynamic 2 HTRF kit (Cisbio), following the two step protocol as per manufacturer's recommendations. Briefly, anti-cAMP cryptate (donor fluorophore) and cAMP-d2 (acceptor fluorophore) were made up separately by diluting each 1/20 in conjugate & lysis buffer provided in the kit. 5 uL of anti-cAMP cryptate was added to all wells of the assay plate and 5 uL of cAMP-d2 added to all wells except non-specific binding wells, to which only conjugate and lysis buffer was added. […] Data was transformed to % Delta F as described in manufacturer's guidelines and analyzed by unconstrained 4-parameter logistic fit of data, curve mid-point to determine EC50.

Sequence of human GLP-1 receptor (P43220 24-463): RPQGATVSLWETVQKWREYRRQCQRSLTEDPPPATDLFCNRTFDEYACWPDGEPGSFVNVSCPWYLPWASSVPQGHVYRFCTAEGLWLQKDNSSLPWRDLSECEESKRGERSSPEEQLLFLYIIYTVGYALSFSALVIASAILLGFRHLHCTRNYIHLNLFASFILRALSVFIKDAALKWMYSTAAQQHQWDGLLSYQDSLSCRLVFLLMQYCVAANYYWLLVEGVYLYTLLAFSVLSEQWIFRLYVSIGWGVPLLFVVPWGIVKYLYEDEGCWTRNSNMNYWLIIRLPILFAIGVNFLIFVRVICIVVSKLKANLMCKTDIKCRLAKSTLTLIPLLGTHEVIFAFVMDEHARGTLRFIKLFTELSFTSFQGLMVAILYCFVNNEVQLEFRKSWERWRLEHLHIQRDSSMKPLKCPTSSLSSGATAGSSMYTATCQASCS

| Molecule | x change |
| --- | --- |
| B1 | 2.4 |

Same assay, conditions: Table 18

| Molecule | Potency at huGLP-1R in cAMP assay (M) |
| --- | --- |
| B2 | Inactive |
| B3 | Inactive |
| B4 | Inactive |
| B5 | Inactive |
| B6 | Inactive |

Same assay, conditions: Table 18; maximum activation compared to GLP-1

| Molecule | % Max Effect |
| --- | --- |
| B7 | 10% |
| B2 | Inactive |
| B8 | 81% |
| B9 | 87% |
| B10 | 44% |
| B3 | Inactive |
| B11 | 82% |
| B12 | 93% |
| B13 | 87% |
| B14 | 86% |
| B15 | 95% |
| B4 | Inactive |
| B16 | 73% |
| B17 | 94% |
| B5 | Inactive |
| B18 | 31% |
| B19 | 87% |
| B20 | 67% |
| B6 | Inactive |
| B21 | 34% |
| B22 | 69% |
| B23 | 90% |
| B24 | 60% |
